Reference: the supplement of paper PMC9112550, “Optimization of the antimicrobial peptide Bac7 by deep mutational scanning” (BMC Biology, 2022)

System: Escherichia coli TOP10
Assay: shrunken log2 fold change of peptide-encoding DNA abundance (4.5 h post-induction vs induction); higher = less antimicrobial activity (less host growth inhibition)
Conditions: time post-induction: 4.5 h; library: site-saturation at positions 5, 18, 19, 20
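Further: peptides expressed intracellularly from a pBAD plasmid library in pooled LB shake-flask culture, induced with 0.3% L-arabinose, DNA abundance read by NGS, three biological replicates, DESeq2 with apeglm shrinkage.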

| Sequence | shrunken log2 fold change |
| --- | --- |
| RRIRERPPRLPRPRPRPDPYPRP | -0.0291 |
| RRIRSRPPRLPRPRPRPFSPPRP | -0.195 |
| RRIRFRPPRLPRPRPRPVKRPRP | 0.0219 |
| RRIRWRPPRLPRPRPRPITVPRP | -0.0559 |
| RRIRGRPPRLPRPRPRPMPNPRP | -0.0294 |
| RRIRFRPPRLPRPRPRPDDRPRP | 0.00835 |
| RRIRTRPPRLPRPRPRPSFEPRP | -0.328 |
| RRIRARPPRLPRPRPRPWWPPRP | 0.292 |
| RRIRRRPPRLPRPRPRPQNNPRP | 0.198 |
| RRIRSRPPRLPRPRPRPFFVPRP | -0.184 |
| RRIRARPPRLPRPRPRPQGCPRP | 0.03 |
| RRIRLRPPRLPRPRPRPSIMPRP | -0.319 |
| RRIRSRPPRLPRPRPRPTGNPRP | -0.275 |
| RRIRTRPPRLPRPRPRPRVRPRP | 2.2 |
| RRIRGRPPRLPRPRPRPRTPPRP | 1.18 |
| RRIRHRPPRLPRPRPRPQQMPRP | 0.00835 |
| RRIRSRPPRLPRPRPRPQLRPRP | 0.123 |
| RRIRDRPPRLPRPRPRPARYPRP | 0.0754 |
| RRIRGRPPRLPRPRPRPLVRPRP | 0.577 |
| RRIRERPPRLPRPRPRPQCEPRP | -0.0239 |
| RRIRGRPPRLPRPRPRPKTMPRP | 0.459 |
| RRIRDRPPRLPRPRPRPNAHPRP | -0.0544 |

| Sequence | shrunken log2 fold change |
| --- | --- |
| RRIRVRPPRLPRPRPRPTRNPRP | 0.0987 |
| RRIRCRPPRLPRPRPRPMGIPRP | 0.00755 |
| RRIRCRPPRLPRPRPRPLEEPRP | 0.408 |
| RRIRWRPPRLPRPRPRPPWIPRP | 1.44 |
| RRIRRRPPRLPRPRPRPNMLPRP | -0.061 |
| RRIRPRPPRLPRPRPRPGSWPRP | 0.941 |
| RRIRCRPPRLPRPRPRPEVHPRP | -0.328 |
| RRIRARPPRLPRPRPRPFYWPRP | -0.24 |
| RRIRCRPPRLPRPRPRPCIGPRP | -0.204 |
| RRIRRRPPRLPRPRPRPVHWPRP | 0.00204 |
| RRIRGRPPRLPRPRPRPWYKPRP | -0.015 |
| RRIRCRPPRLPRPRPRPFYCPRP | -0.645 |
| RRIRTRPPRLPRPRPRPVACPRP | -0.0699 |
| RRIRRRPPRLPRPRPRPYVCPRP | -0.374 |
| RRIRVRPPRLPRPRPRPHEMPRP | -0.058 |
| RRIRKRPPRLPRPRPRPWHNPRP | -0.124 |
| RRIRGRPPRLPRPRPRPHTVPRP | -0.311 |
| RRIRMRPPRLPRPRPRPNGNPRP | 0.261 |
| RRIRFRPPRLPRPRPRPGMFPRP | 0.0382 |
| RRIRIRPPRLPRPRPRPAMSPRP | -0.0178 |
| RRIRCRPPRLPRPRPRPHNMPRP | -0.82 |
| RRIRYRPPRLPRPRPRPYQNPRP | -0.467 |

| Sequence | shrunken log2 fold change |
| --- | --- |
| RRIRARPPRLPRPRPRPKKCPRP | 0.0283 |
| RRIRHRPPRLPRPRPRPYVLPRP | -0.14 |
| RRIRGRPPRLPRPRPRPLYGPRP | -0.105 |
| RRIRWRPPRLPRPRPRPGAKPRP | 0.21 |
| RRIRTRPPRLPRPRPRPVQQPRP | 0.0144 |
| RRIRARPPRLPRPRPRPMELPRP | 0.114 |
| RRIRYRPPRLPRPRPRPAERPRP | 0.0541 |
| RRIRRRPPRLPRPRPRPMCGPRP | -0.0233 |
| RRIRMRPPRLPRPRPRPQCKPRP | -0.0461 |
| RRIRKRPPRLPRPRPRPSSGPRP | -0.0282 |
| RRIRGRPPRLPRPRPRPKSFPRP | 0.0944 |
| RRIRSRPPRLPRPRPRPMAEPRP | 0.348 |
| RRIRPRPPRLPRPRPRPLFMPRP | -0.38 |
| RRIRFRPPRLPRPRPRPLGCPRP | 0.121 |
| RRIRTRPPRLPRPRPRPNDAPRP | -0.036 |
| RRIRGRPPRLPRPRPRPLWLPRP | 0.574 |
| RRIRWRPPRLPRPRPRPFIIPRP | -0.617 |
| RRIRARPPRLPRPRPRPTEKPRP | 0.413 |
| RRIRKRPPRLPRPRPRPNQKPRP | 0.11 |
| RRIRSRPPRLPRPRPRPFWHPRP | -0.0146 |
| RRIRKRPPRLPRPRPRPRPCPRP | 0.365 |
| RRIRLRPPRLPRPRPRPRLYPRP | -0.26 |

| Sequence | shrunken log2 fold change |
| --- | --- |
| RRIRQRPPRLPRPRPRPTRSPRP | 0.164 |
| RRIRDRPPRLPRPRPRPTGHPRP | 0.502 |
| RRIRGRPPRLPRPRPRPQWWPRP | 0.53 |
| RRIRYRPPRLPRPRPRPPIFPRP | -0.381 |
| RRIRPRPPRLPRPRPRPQQYPRP | -0.108 |
| RRIRRRPPRLPRPRPRPGDLPRP | 1.58 |
| RRIRTRPPRLPRPRPRPAWLPRP | -0.0636 |
| RRIRLRPPRLPRPRPRPFAKPRP | -0.118 |
| RRIRDRPPRLPRPRPRPAVVPRP | 0.0373 |
| RRIRSRPPRLPRPRPRPIVMPRP | 0.0137 |
| RRIRYRPPRLPRPRPRPMPWPRP | -0.0575 |
| RRIRCRPPRLPRPRPRPTPQPRP | 0.794 |
| RRIRCRPPRLPRPRPRPQSHPRP | -0.304 |
| RRIRSRPPRLPRPRPRPTTVPRP | 0.14 |
| RRIRIRPPRLPRPRPRPTQLPRP | 0.31 |
| RRIRCRPPRLPRPRPRPQYTPRP | -0.946 |
| RRIRTRPPRLPRPRPRPPASPRP | 1.72 |
| RRIRRRPPRLPRPRPRPQGHPRP | 0.071 |
| RRIRQRPPRLPRPRPRPQPEPRP | -0.0839 |
| RRIRKRPPRLPRPRPRPHLCPRP | 0.0127 |
| RRIRHRPPRLPRPRPRPPVIPRP | -0.251 |
| RRIRGRPPRLPRPRPRPPIMPRP | 0.375 |

| Sequence | shrunken log2 fold change |
| --- | --- |
| RRIRRRPPRLPRPRPRPILNPRP | -0.0188 |
| RRIRERPPRLPRPRPRPGVDPRP | 0.114 |
| RRIRHRPPRLPRPRPRPWLVPRP | -0.0872 |
| RRIRERPPRLPRPRPRPYWVPRP | -0.338 |
| RRIRGRPPRLPRPRPRPADCPRP | 0.349 |
| RRIRNRPPRLPRPRPRPVQYPRP | -0.000777 |
| RRIRFRPPRLPRPRPRPGEKPRP | 0.084 |
| RRIRVRPPRLPRPRPRPRAWPRP | 0.086 |
| RRIRPRPPRLPRPRPRPYWYPRP | -0.958 |
| RRIRRRPPRLPRPRPRPRCNPRP | -0.223 |
| RRIRNRPPRLPRPRPRPSANPRP | -0.379 |
| RRIRERPPRLPRPRPRPTASPRP | -0.15 |
| RRIRYRPPRLPRPRPRPRPLPRP | -0.3 |
| RRIRGRPPRLPRPRPRPKTSPRP | 0.702 |
| RRIRPRPPRLPRPRPRPWTIPRP | -0.117 |
| RRIRYRPPRLPRPRPRPDFQPRP | -0.409 |
| RRIRYRPPRLPRPRPRPVRIPRP | -0.053 |
| RRIRFRPPRLPRPRPRPMKMPRP | -0.0224 |
| RRIRLRPPRLPRPRPRPEFLPRP | -0.108 |
| RRIRSRPPRLPRPRPRPIHIPRP | -0.157 |
| RRIRGRPPRLPRPRPRPSEYPRP | -0.0981 |
